# From patent publication US20170174775A1 (published 2017)
# Where a chain is given by its changes, count along the chain named.
# B1: DOM4-130-54 (other)
# VL: DIQMTQSPSSLSASVGDRVTITCRASQDIYLNLDWYQQKPGKAPKLLINFGSELQSGVPSRFSGSGYGTDFTLTISSLQPEDFATYYCQPSFYFPYTFGQGTKVEIKR
# notes: dAb (VK single variable domain) against IL-1R1; parent
# B2: DOM4-130-202 (other)
# chain: B1 VL with T22S, N49S, F83S, F94Y
# B3: DOM4-130-201 (other)
# chain: B1 VL with N49K, S77N, R108W
# Biological target: T1, IL-RI (Receptor Binding Assay)
# T1 construct: The construct used in the RBA is not described; it may be the same as the IL-1R1 fusion protein; also called IL-1RI; IL-1R1
# Assay: Receptor Binding Assay; inhibition of IL-1 binding to IL-RI
# T1 sequence (P14778 whole entry, the tested form may be a part): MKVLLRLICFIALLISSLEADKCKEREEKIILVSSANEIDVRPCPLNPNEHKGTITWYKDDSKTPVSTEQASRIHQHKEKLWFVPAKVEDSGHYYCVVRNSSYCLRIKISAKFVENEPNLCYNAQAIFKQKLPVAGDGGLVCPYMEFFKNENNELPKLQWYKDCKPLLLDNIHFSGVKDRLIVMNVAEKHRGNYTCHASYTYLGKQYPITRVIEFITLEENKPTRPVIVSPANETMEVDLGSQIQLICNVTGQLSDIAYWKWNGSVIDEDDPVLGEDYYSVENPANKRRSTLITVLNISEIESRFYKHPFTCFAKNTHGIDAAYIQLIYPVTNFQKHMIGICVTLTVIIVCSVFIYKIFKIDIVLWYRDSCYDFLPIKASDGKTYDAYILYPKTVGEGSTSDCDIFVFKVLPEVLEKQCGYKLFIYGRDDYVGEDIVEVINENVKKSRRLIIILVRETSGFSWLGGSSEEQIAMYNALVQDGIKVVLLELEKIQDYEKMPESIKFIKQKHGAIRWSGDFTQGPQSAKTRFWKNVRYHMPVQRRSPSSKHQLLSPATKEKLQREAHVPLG
row,Binder,IC50 [nM]
1,B1,0.28
2,B2,0.254
3,B3,0.257
